One test addresses IL-2 receptor signaling complex on primary human NK cells and CD8+ T cells (IL-2Rβγ) (human) (UniProt P14784). Put plainly: cell-based or functional assay. Also on record: unit not given beside the values.
Chain of IL-2 receptor signaling complex on primary human NK cells and CD8+ T cells (IL-2Rβγ) (human) (P14784 27-551, chain 1 of 2): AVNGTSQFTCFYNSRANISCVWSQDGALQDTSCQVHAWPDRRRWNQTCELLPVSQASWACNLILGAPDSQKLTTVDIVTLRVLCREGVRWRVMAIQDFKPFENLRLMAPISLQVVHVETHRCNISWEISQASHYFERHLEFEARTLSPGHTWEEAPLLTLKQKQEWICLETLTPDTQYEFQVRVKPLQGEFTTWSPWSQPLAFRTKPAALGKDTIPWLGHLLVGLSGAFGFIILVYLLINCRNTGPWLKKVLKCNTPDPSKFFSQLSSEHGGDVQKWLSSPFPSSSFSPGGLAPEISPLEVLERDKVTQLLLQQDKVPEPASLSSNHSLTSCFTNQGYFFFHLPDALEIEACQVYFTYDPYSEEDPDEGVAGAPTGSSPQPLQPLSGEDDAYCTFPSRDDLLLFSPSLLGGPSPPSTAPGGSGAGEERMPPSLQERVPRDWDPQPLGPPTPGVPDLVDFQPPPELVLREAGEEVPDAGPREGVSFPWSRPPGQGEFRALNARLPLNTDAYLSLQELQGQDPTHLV
Chain of IL-2 receptor signaling complex on primary human NK cells and CD8+ T cells (IL-2Rβγ) (human) (P31785 23-369, chain 2 of 2, further chain): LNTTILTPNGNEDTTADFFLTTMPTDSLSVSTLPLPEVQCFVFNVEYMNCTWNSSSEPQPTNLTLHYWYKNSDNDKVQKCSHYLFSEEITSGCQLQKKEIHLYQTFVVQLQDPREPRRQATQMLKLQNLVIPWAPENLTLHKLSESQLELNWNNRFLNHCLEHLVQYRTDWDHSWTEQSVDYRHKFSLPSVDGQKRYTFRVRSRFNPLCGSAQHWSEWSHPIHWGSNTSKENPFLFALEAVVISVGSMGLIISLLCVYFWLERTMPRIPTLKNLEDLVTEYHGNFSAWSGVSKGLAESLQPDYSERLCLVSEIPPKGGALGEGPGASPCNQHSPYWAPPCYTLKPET
Chain of IL-2 receptor signaling complex on primary human Treg cells (IL-2Rα expressing; IL-2Rαβγ) (human) (P01589 22-272, chain 1 of 3): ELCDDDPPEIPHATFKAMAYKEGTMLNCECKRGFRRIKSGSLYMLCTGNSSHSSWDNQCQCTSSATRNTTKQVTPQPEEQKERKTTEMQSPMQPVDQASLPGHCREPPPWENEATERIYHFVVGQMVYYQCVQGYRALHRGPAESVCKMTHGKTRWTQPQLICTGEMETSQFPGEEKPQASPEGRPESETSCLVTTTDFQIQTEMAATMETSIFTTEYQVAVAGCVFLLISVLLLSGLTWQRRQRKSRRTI
Chain of IL-2 receptor signaling complex on primary human Treg cells (IL-2Rα expressing; IL-2Rαβγ) (human) (P14784 27-551, chain 2 of 3, further chain): as the sequence (P14784 27-551, chain 1 of 2) above
Chain of IL-2 receptor signaling complex on primary human Treg cells (IL-2Rα expressing; IL-2Rαβγ) (human) (P31785 23-369, chain 3 of 3, further chain): as the sequence (P31785 23-369, chain 2 of 2, further chain) above
Chain of S127_30kD (P60568 other isoform, or with tags, fused parts or gaps limits assumed): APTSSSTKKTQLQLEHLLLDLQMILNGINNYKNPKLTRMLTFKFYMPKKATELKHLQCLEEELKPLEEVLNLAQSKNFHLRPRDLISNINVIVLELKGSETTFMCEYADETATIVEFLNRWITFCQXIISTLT
Consider “N88R (from UniProt P60568 21-153) (ligand)”, for which the EC50 for pSTAT5 signaling, CD8+ T cells is 1.5e+07 and the EC50 for pSTAT5 signaling, NK cells was 2.31e+06.
“V91K (from UniProt P60568 21-153) (ligand)” registered an EC50 for pSTAT5 signaling, CD8+ T cells of 102000 and an EC50 for pSTAT5 signaling, NK cells of 20500.
For “N88R/D109_30kD (from UniProt P60568 21-153) (ligand)” the same measures were 1.25e+07 and 2.78e+06.

The next test concerns the target IL-2 receptor signaling complex on primary human Treg cells (IL-2Rα expressing; IL-2Rαβγ) (human) (UniProt P01589). Put plainly: cell-based or functional assay. On the set-up: unit not given beside the values.
“N88R (from UniProt P60568 21-153) (ligand)”: the EC50 for pSTAT5 signaling, Treg cells was 11100.
On to “V91K (from UniProt P60568 21-153) (ligand)”, for which the EC50 for pSTAT5 signaling, Treg cells stood at 142.
“N88R/D109_30kD (from UniProt P60568 21-153) (ligand)”: the EC50 for pSTAT5 signaling, Treg cells was determined as 176000.
“S127_30kD (from UniProt P60568 21-153) (ligand)” came in with an EC50 for pSTAT5 signaling, Treg cells of 150.
